Experiment [1] deals with T1, recombinant mRGMb-HIS (R&D Systems) (mouse, UniProt Q7TQ33 49-415).
T1 sequence (looked up): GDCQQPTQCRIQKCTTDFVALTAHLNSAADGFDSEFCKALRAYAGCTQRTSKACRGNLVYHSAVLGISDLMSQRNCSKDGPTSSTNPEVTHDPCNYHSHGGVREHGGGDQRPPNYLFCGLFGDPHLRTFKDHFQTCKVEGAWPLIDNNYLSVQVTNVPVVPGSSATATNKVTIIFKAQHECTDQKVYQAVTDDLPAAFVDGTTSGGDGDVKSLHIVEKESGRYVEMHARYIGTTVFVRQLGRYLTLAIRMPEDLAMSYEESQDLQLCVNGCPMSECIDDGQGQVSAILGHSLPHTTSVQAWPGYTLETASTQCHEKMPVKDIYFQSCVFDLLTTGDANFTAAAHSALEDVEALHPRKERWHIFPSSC
In words: ELISA.

Experiment [2] has as its target T2, recombinant hRGMb-HIS (R&D Systems) (human, UniProt Q6NW40 46-413).
T2 sequence (looked up): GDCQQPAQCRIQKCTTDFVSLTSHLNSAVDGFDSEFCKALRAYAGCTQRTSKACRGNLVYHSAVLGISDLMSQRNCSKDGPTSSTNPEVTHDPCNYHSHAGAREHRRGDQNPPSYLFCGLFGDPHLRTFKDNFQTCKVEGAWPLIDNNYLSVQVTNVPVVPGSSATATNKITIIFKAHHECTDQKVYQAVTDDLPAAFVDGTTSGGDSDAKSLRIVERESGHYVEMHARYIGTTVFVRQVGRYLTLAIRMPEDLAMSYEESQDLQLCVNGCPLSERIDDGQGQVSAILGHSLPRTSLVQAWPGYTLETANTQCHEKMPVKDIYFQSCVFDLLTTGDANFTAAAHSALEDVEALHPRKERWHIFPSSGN
In words: ELISA.

For experiment [3], the target named is T1, recombinant mRGMb-HIS (R&D Systems). In words: ELISA. This is another data set of the same source.
Experiment [4] has as its target T2, recombinant hRGMb-HIS (R&D Systems). In words: ELISA. The source holds these as a separate data set.
For experiment [5], the target named is T3, RGMb (R&D Systems) immobilised for Biacore ( (mouse and human RGMb-HIS …, UniProt Q7TQ33 49-415)).
T3 sequence (looked up): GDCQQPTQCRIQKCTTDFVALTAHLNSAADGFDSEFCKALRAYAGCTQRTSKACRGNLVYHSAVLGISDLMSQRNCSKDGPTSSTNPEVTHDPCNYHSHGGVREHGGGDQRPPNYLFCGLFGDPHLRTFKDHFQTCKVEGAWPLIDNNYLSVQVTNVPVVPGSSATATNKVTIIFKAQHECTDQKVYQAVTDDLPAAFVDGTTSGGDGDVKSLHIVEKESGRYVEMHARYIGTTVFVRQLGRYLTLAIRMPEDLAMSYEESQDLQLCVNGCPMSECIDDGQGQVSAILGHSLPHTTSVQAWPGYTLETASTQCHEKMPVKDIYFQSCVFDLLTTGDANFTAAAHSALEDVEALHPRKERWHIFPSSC
In words: SPR.

Experiment [6] concerns the target T1, recombinant mRGMb-HIS (R&D Systems). In words: ELISA. This is another data set of the same source.

Where two headings read alike, the source gives them in different places.

B1: hPD-L2-mIgG2a fusion protein (Fc fusion, human, UniProt Q9BQ51 20-220, looked up)
chain: LFTVTVPKELYIIEHGSNVTLECNFDTGSHVNLGAITASLQKVENDTSPHRERATLLEEQLPLGKASFHIPQVQVRDEGQYQCIIIYGVAWDYKYLTLKVKASYRKINTHILKVPETDEVELTCQATGYPLAEVSWPNVSVPANTSHSRTPEGLYQVTSVLRLKPPPGRNFSCVFWNTHVRELTLASIDLQSQMEPRTHPT
Consider B1, for which the binding result in experiment [1] and in experiment [2] was “binds” each time.

B2: recombinant mouse BMP-4 (R&D Systems) (ligand, UniProt P21275 293-408, looked up)
chain: SPKHHPQRSRKKNKNCRRHSLYVDFSDVGWNDWIVAPPGYQAFYCHGDCPFPLADHLNSTNHAIVQTLVNSVNSSIPKACCVPTELSAISMLYLDEYDKVVLKNYQEMVVEGCGCR
Consider B2, for which the binding result in experiment [3] is recorded as “binds”.

B3: mPD-L2-hIgG1/IgA fusion protein (Fc fusion, mouse, UniProt Q9WUL5 20-221, looked up)
chain: LFTVTAPKEVYTVDVGSSVSLECDFDRRECTELEGIRASLQKVENDTSLQSERATLLEEQLPLGKALFHIPSVQVRDSGQYRCLVICGAAWDYKYLTVKVKASYMRIDTRILEVPGTGEVQLTCQARGYPLAEVSWQNVSVPANTSHIRTPEGLYQVTSVLRLKPQPSRNFSCMFWNAHMKELTSAIIDPLSRMEPKVPRTW
As to B3, the binding result in experiment [4] was “binds”.

B4: mPD-L2-hIgG (R&D Systems) (Fc fusion, mouse, UniProt Q9WUL5 20-221, looked up)
chain: LFTVTAPKEVYTVDVGSSVSLECDFDRRECTELEGIRASLQKVENDTSLQSERATLLEEQLPLGKALFHIPSVQVRDSGQYRCLVICGAAWDYKYLTVKVKASYMRIDTRILEVPGTGEVQLTCQARGYPLAEVSWQNVSVPANTSHIRTPEGLYQVTSVLRLKPQPSRNFSCMFWNAHMKELTSAIIDPLSRMEPKVPRTW
In turn, B4 had a Kd in experiment [5] of 48.5 nM.

B5: recombinant mouse BMP-2 (Invitrogen) (ligand, UniProt P21274 281-394, looked up)
chain: QAKHKQRKRLKSSCKRHPLYVDFSDVGWNDWIVAPPGYHAFYCHGECPFPLADHLNSTNHAIVQTLVNSVNSKIPKACCVPTELSAISMLYLDENEKVVLKNYQDMVVEGCGCR
As for B5, the binding result in experiment [6] is “binds”.
